{"source": "paper PMC9584609", "about": "“Determination of oligomeric states of proteins via dual-color colocalization with single molecule localization microscopy” (eLife, 2022)", "proteins": {"B1": {"name": "prestin (Slc26a5) tagged with mVenus and PAmCherry (natural protein, rat, UniProt Q9EPH0 1-744, looked up)", "chain": "MDHAEENEIPAETQKYLVERPIFSHPVLQERLHVKDKVTDSIGDKLKQAFTCTPKKVRNIIYMFLPITKWLPAYKFKEYVLGDLVSGISTGVLQLPQGLAFAMLAAVPPVFGLYSSFYPVIMYCFFGTSRHISIGPFAVISLMIGGVAVRLVPDDIVIPGGVNATNGTEARDALRVKVAMSVTLLSGIIQFCLGVCRFGFVAIYLTEPLVRGFTTAAAVHVFTSMLKYLFGVKTKRYSGIFSVVYSTVAVLQNVKNLNVCSLGVGLMVFGLLLGGKEFNERFKEKLPAPIPLEFFAVVMGTGISAGFNLHESYSVDVVGTLPLGLLPPANPDTSLFHLVYVDAIAIAIVGFSVTISMAKTLANKHGYQVDGNQELIALGICNSIGSLFQTFSISCSLSRSLVQEGTGGKTQLAGCLASLMILLVILATGFLFESLPQAVLSAIVIVNLKGMFMQFSDLPFFWRTSKIELTIWLTTFVSSLFLGLDYGLITAVIIALLTVIYRTQSPSYTVLGQLPDTDVYIDIDAYEEVKEIPGIKIFQINAPIYYANSDLYSSALKRKTGVNPAIIMGARRKAMRKYAKEVGNANIANATVVKVDAEVDGENATKPEEEDDEVKFPPIVIKTTFPEELQRFLPQGENIHTVILDFTQVNFMDSVGVKTLAGIVKEYGDVGIYVYLAGCSAQVVNDLTSNRFFENPALKELLFHSIHDAVLGSQVREAMAEQETTVLPPQEDMEPNATPTTPEA", "notes": "prestin (Slc26a5), rat motor protein of cochlear outer hair cells; The same construct was used for DCC-SMLM and hrCNE; also called SLC26A5/prestin; source: HEK293T, transfected; on fixed cells (DCC-SMLM) and in lysate (digitonin or DDM, hrCNE); not shown: mVenus, C-terminal, kept; PAmCherry, C-terminal, kept"}, "B2": {"name": "SLC26A3 tagged with mVenus and PAmCherry (natural protein, human, UniProt P40879 1-764, looked up)", "chain": "MIEPFGNQYIVARPVYSTNAFEENHKKTGRHHKTFLDHLKVCCSCSPQKAKRIVLSLFPIASWLPAYRLKEWLLSDIVSGISTGIVAVLQGLAFALLVDIPPVYGLYASFFPAIIYLFFGTSRHISVGPFPILSMMVGLAVSGAVSKAVPDRNATTLGLPNNSNNSSLLDDERVRVAAAASVTVLSGIIQLAFGILRIGFVVIYLSESLISGFTTAAAVHVLVSQLKFIFQLTVPSHTDPVSIFKVLYSVFSQIEKTNIADLVTALIVLLVVSIVKEINQRFKDKLPVPIPIEFIMTVIAAGVSYGCDFKNRFKVAVVGDMNPGFQPPITPDVETFQNTVGDCFGIAMVAFAVAFSVASVYSLKYDYPLDGNQELIALGLGNIVCGVFRGFAGSTALSRSAVQESTGGKTQIAGLIGAIIVLIVVLAIGFLLAPLQKSVLAALALGNLKGMLMQFAEIGRLWRKDKYDCLIWIMTFIFTIVLGLGLGLAASVAFQLLTIVFRTQFPKCSTLANIGRTNIYKNKKDYYDMYEPEGVKIFRCPSPIYFANIGFFRRKLIDAVGFSPLRILRKRNKALRKIRKLQKQGLLQVTPKGFICTVDTIKDSDEELDNNQIEVLDQPINTTDLPFHIDWNDDLPLNIEVPKISLHSLILDFSAVSFLDVSSVRGLKSILQEFIRIKVDVYIVGTDDDFIEKLNRYEFFDGEVKSSIFFLTIHDAVLHILMKKDYSTSKFNPSQEKDGKIDFTINTNGGLRNRVYEVPVETKF", "notes": "SLC26A3, human epithelial chloride-bicarbonate exchanger; The same construct was used for DCC-SMLM and hrCNE; also called epithelial chloride-bicarbonate exchanger SLC26A3; source: HEK293T, transfected; on fixed cells (DCC-SMLM) and in lysate (digitonin or DDM, hrCNE); not shown: mVenus, C-terminal, kept; PAmCherry, C-terminal, kept"}}, "target": "the molecule itself", "experiment": "dual-color colocalization single molecule localization microscopy (DCC-SMLM); HEK293T cells transiently transfected, fixed with cold methanol; each subunit C-terminally tagged with mVenus and PAmCherry; colocalization ratio compared with the calibrated DCC model (coefficient of mismatch M^2) and with reference proteins (two-sample K.-S. test)", "data": [{"protein": "B1", "values": [{"measurement": "stoichiometry N", "value": 2}]}, {"protein": "B2", "values": [{"measurement": "stoichiometry N", "value": 2}]}]}
